Measurements: the supplement of paper PMC11908140

B1: library; numbered along this chain (parent)
chain: MRKPRAAVGSGHRKQAASQEGRQKHAKNNSQAKPSACDGLARQPEEVVLQASVSSYHLFRDVAEVTAFRGSLLSWYDQEKRDLPWRRRAEDEMDLDRRAYAVWVSEVMLQQTQVATVINYYTGWMQKWPTLQDLASASLEEVNQLWAGLGYYSRGRRLQEGARKVVEELGGHMPRTAETLQQLLPGVGRYTAGAIASIAFGQATGVVDGNVARVLCRVRAIGADPSSTLVSQQLWGLAQQLVDPARPGDFNQAAMELGATVCTPQRPLCSQCPVESLCRARQRVEQEQLLASGSLSGSPDVEECAPNTGQCHLCLPPSEPWDQTLGVVNFPRKASRKPPREESSATCVLEQPGALGAQILLVQRPNSGLLAGLWEFPSVTWEPSEQLQRKALLQELQRWAGPLPATHLRHLGEVVHTFSHIKLTYQVYGLALEGQTPVTTVPPGARWLTQEEFHTAAVSTAMKKVFRVYQGQQPGTCMGSKRSQVSSPCSRKKPRMGQQVLDNFFRSHISTDAHSLNSAAQ

Variants of: B1
Assay: 8OG:A repair function score (normalized; synonymous = 0, nonsense = -1) (normalized log-likelihood score); higher = more repair activity (WT-like)
Conditions: with 8OG:A DNA repair reporter (GFP) in HEK-293 MUTYH KO cells
Procedure: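 Saturation mutagenesis (NNN codon scan) of the MUTYH cDNA (521-aa nuclear isoform NM_001048174.1 / NP_001041639), stably expressed under doxycycline induction in HEK-293 MUTYH knockout cells. Cells were co-transfected with an 8OG:A-bearing GFP repair reporter plus mCherry and sorted 72 h later into GFP+ and GFP− bins, three replicates per tile. The Rosace log2 enrichment (GFP+ vs GFP−) was converted per tile to a normalized function score with synonymous variants centered at 0 and nonsense variants (codons 1-471) at -1; low-abundance variants were removed.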

8OG:A repair function score, by site and new letter:
E141: L -0.401, T -0.0124, H 0.19, A -0.0585, D -0.251, I -0.599, N 0.127, V -0.27, Y -0.924, S -0.0511, G -0.256, C -0.219, P -0.499, M -0.111, R -0.449, F -0.392, K -0.0452, W -0.348
E140: R -0.124, H -0.253, M -0.00715, D 0.0449, Y -0.187, T -0.149, P -0.438, G -0.183, F -0.353, N -0.0981, C -0.0271, L -0.0779, V -0.181, S -0.0988, K -0.15, Q -0.159, A -0.0255, W -0.595, I -0.242
S138: W -0.724, G 0.0657, H 0.0365, T 0.0193, Y -0.0612, F -0.378, R 0.0347, Q -0.0419, I -0.286, D -0.192, A -0.0766, K -0.105, V -0.188, P -0.0208, L -0.279, E -0.00767, M -0.0953, C -0.385, N -0.128
A137: N -0.267, D -0.219, R -0.54, Y -0.928, M -0.417, W -1.02, E -0.16, K -0.626, T -0.295, F -0.738, I -0.286, H -0.568, S -0.0075, C -0.261, L -1.02, G -0.176, P -0.869, V -0.325, Q -0.0812
S136: H -0.136, R 0.0299, L -0.0288, N -0.0676, I -0.0848, C -0.0713, W -0.154, D 0.029, F -0.278, K 0.0771, Y 0.0366, P -0.137, A 0.0607, V 0.077, G 0.03, T 0.078, E 0.0125, Q -0.0528, M 0.116
L139: V 0.0777, R -0.0247, A -0.241, G -0.00666, P 0.0573, N 0.213, H 0.1, Q -0.0666, K -0.511, Y -0.0177, E -0.17, W -0.0565, I 0.139, S -0.0783, D -0.831, M -0.053, T 0.00391, F -0.0535, C -0.0786
A135: G -0.074, Y -0.211, E -0.996, D -0.636, K -0.317, N -0.227, R -0.0784, T -0.165, P -0.477, Q -0.686, V -0.0536, W -0.338, F -0.316, H -0.353, L -0.28, I -0.611, M -0.467, C -0.244, S -0.0157
V142: G -0.5, M -0.673, R -0.841, N -1.86, I -0.297, C -0.143, L -0.245, A -0.377, K -0.84, H -0.882, F -0.926, S -0.632, D -1.15, P -0.569, Q -0.397, E -0.728
L134: S -0.514, P -1.26, W -0.665, G -0.824, I -0.101, V 0.0486, C -0.394, Q -1.24, F -0.116, R -1.01, D -1.82, E -0.848, Y -0.464, N -0.686, A -0.0633, T -0.714, M -0.216, H -0.607, K -0.914
